According to article PMC7264359, “AcrIF9 tethers non-sequence specific dsDNA to the CRISPR RNA-guided surveillance complex” (Nature Communications, 2020):

Assays:
[1] = target: type I-F CRISPR RNA-guided surveillance complex (Csy) (Pseudomonas aeruginosa) (UniProt Q02ML9); assay: cryo-EM structure; Csy–AcrIF9 complex co-expressed in E. coli and co-purified (Ni-NTA, Superdex 200 in 20 mM HEPES pH 7.5, 100 mM NaCl, 5% glycerol, 1 mM TCEP); nominal resolution ~3.9 Å
[2] = target: the molecule itself; assay: as above

Chain of type I-F CRISPR RNA-guided surveillance complex (Csy) (Pseudomonas aeruginosa) (Q02ML9 whole entry, chain 1 of 3): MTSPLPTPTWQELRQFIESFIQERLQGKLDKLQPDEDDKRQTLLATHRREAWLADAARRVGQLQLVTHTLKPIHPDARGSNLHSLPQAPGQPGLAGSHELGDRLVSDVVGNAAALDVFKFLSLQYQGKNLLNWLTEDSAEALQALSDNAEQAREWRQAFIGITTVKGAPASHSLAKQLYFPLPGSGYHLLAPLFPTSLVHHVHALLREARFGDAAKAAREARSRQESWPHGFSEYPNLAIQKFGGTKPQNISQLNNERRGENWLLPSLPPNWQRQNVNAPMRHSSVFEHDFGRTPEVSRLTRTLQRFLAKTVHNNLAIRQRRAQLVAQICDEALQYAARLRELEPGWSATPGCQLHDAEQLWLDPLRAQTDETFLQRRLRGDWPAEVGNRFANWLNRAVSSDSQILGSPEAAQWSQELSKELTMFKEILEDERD
Chain of type I-F CRISPR RNA-guided surveillance complex (Csy) (Pseudomonas aeruginosa) (Q02MM0 whole entry, chain 2 of 3, further chain): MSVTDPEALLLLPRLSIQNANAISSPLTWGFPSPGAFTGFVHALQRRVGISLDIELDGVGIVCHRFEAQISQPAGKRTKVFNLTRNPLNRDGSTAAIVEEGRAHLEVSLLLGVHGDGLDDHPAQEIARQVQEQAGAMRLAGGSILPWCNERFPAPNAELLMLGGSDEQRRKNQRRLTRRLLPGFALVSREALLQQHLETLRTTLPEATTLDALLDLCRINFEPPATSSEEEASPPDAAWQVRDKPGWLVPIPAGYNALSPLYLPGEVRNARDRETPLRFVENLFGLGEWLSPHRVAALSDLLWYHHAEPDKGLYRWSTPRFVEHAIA
Chain of type I-F CRISPR RNA-guided surveillance complex (Csy) (Pseudomonas aeruginosa) (Q02MM2 whole entry, chain 4 of 3, further chain): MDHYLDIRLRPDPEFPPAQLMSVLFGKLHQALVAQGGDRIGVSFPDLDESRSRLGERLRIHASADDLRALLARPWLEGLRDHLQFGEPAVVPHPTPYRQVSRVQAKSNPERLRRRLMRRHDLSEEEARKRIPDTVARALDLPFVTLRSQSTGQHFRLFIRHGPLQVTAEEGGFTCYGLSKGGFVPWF

Q: How did the stoichiometry N [1] turn out when “anti-CRISPR protein IF9 (AcrIF9), co-expressed with Csy (natural protein)” was run?
A: 2

B1: Cas7f (natural protein, Pseudomonas aeruginosa)
chain: SKPILSTASVLAFERKLDPSDALMSAGAWAQRDASQEWPAVTVREKSVRGTISNRLKTKDRDPAKLDASIQSPNLQTVDVANLPSDADTLKVRFTLRVLGGAGTPSACNDAAYRDKLLQTVATYVNDQGFAELARRYAHNLANARFLWRNRVGAEAVEVRINHIRQGEVARAWRFDALAIGLRDFKADAELDALAELIASGLSGSGHVLLEVVAFARIGDGQEVFPSQELILDKGDKKGQKSKTLYSVRDAAAIHSQKIGNALRTIDTWYPDEDGLGPIAVEPYGSVTSQGKAYRQPKQKLDFYTLLDNWVLRDEAPAVEQQHYVIANLIRGGVFGEAEEK
notes: Cas7f, backbone subunit of the type I-F Csy complex of Pseudomonas aeruginosa; Stood in the assay as a subunit of the Csy complex (six copies along the crRNA); also called Cas7.4f; Cas7.6f; source: E. coli BL21 (DE3), co-expressed with the other Csy genes, a synthetic CRISPR and AcrIF9; purified within the complex (Ni-NTA, Superdex 200)
Q: For B1, which “stoichiometry N” value [2] is on record?
A: 6
